# Results taken from patent publication US20240209062A1 (INVETX, published 2024).
# Target: T1, feline FcRn (soluble portion of large subunit p51 isoform X1 with C-terminal 6xHis-tag, co-expressed with … (feline, UniProt Q5MGS7 21-118))
# T1 construct: Heterodimer made by co-expression in CHO cells, purified on HisTrap FF; also called FcRn complex
# Assay: SPR, Biacore T200, IgG captured on Protein L chip, feline FcRn flowed over, pH 5.9, 1:1 fit
# How it was run: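 Biacore T200; antibody variants captured via kappa chain on Protein L chip (10 μL/min, 60 s), feline FcRn injected at 30 μL/min, 120 s contact, 600 s dissociation, in PBS-P+ running buffer at pH 5.9. Glycine pH 1.7 regeneration; kinetics fitted to 1:1 model.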
# T1 sequence (chain, as listed by the source limits assumed, chain 1 of 2): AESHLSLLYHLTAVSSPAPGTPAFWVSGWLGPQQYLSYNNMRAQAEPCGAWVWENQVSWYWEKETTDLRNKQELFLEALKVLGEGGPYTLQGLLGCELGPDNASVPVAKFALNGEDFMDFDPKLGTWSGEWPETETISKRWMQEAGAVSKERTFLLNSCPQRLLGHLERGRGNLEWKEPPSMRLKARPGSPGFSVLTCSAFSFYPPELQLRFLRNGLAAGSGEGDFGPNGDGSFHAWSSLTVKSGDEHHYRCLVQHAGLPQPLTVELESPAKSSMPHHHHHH
# T1 sequence (Q5MGS7 other isoform, or with tags, fused parts or gaps limits assumed, chain 2 of 2): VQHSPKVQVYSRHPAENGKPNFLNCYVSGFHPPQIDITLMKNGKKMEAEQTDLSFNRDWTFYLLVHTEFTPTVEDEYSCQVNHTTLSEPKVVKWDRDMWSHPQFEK
Binder,Kd,koff,kon
"IgG with feline IgG1a Fc variant S428M, R301Y (antibody, IgG1a constant domain with MALA mutations (M234A, L244A as printed); variable domains from WO 2023/97275) heavy: DVQLVESGGDLVKPGGSLRLTCVASGLSLTSDSMSWVRQAPGKGLQWVSTLWSNRGTYYTDSVKGRFTISKDNAENTLYLQMNNLKTEDTATYYCASIYYYEADYLHWYFDFWGQGALVTVSSASTTAPSVFPLAPSCGTTSGATVALACLVLGYFPEPVTVSWNSGALTSGVHTFPAVLQASGLYSLSSMVTVPSSRWLSDTFTCNVAHPPSNTKVDKTVRKTDHPPGPKPCDCPKCPPPEAAGGPSIFIFPPKPKDTLSISRTPEVTCLVVDLGPDDSDVQITWFVDNTQVYTAKTSPREEQFNSTYYVVSVLPILHQDWLKGKEFKCKVNSKSLPSPIERTISKAKGQPHEPQVYVLPPAQEELSRNKVSVTCLIKSFHPPDIAVEWEITGQPEPENNYRTTPPQLDSDGTYFVYSKLSVDRSHWQRGNTYTCSVMHEALHSHHTQKSLTQSPG light: EIQMTQSPTSLSASVGDRVTITCRASEGIANNLSWYQQTPGKAPKLLIYATSNLHSGVPSRFSGSGSGTDFTLTISSLQPEDFATYYCQQGFKWPLTFGGGTKLEITRSDAQPSVFLFQPSLDELHTGSASIVCILNDFYPKEVNVKWKVDGVVQNKGIQESTTEQNSKDSTYSLSSTLTMSSTEYQSHEKFSCEVTHKSLASTLVKSFNRSECQRE",98.7 nM,0.082 s⁻¹,830000 M⁻¹ s⁻¹
"IgG with feline IgG1a Fc variant S428M, T286D (antibody, IgG1a constant domain with MALA mutations (M234A, L244A as printed); variable domains from WO 2023/97275) heavy: DVQLVESGGDLVKPGGSLRLTCVASGLSLTSDSMSWVRQAPGKGLQWVSTLWSNRGTYYTDSVKGRFTISKDNAENTLYLQMNNLKTEDTATYYCASIYYYEADYLHWYFDFWGQGALVTVSSASTTAPSVFPLAPSCGTTSGATVALACLVLGYFPEPVTVSWNSGALTSGVHTFPAVLQASGLYSLSSMVTVPSSRWLSDTFTCNVAHPPSNTKVDKTVRKTDHPPGPKPCDCPKCPPPEAAGGPSIFIFPPKPKDTLSISRTPEVTCLVVDLGPDDSDVQITWFVDNTQVYDAKTSPREEQFNSTYRVVSVLPILHQDWLKGKEFKCKVNSKSLPSPIERTISKAKGQPHEPQVYVLPPAQEELSRNKVSVTCLIKSFHPPDIAVEWEITGQPEPENNYRTTPPQLDSDGTYFVYSKLSVDRSHWQRGNTYTCSVMHEALHSHHTQKSLTQSPG light: EIQMTQSPTSLSASVGDRVTITCRASEGIANNLSWYQQTPGKAPKLLIYATSNLHSGVPSRFSGSGSGTDFTLTISSLQPEDFATYYCQQGFKWPLTFGGGTKLEITRSDAQPSVFLFQPSLDELHTGSASIVCILNDFYPKEVNVKWKVDGVVQNKGIQESTTEQNSKDSTYSLSSTLTMSSTEYQSHEKFSCEVTHKSLASTLVKSFNRSECQRE",34.9 nM,0.0372 s⁻¹,1.07e+06 M⁻¹ s⁻¹

# More lines, now with the values ahead:
Kd,koff,kon,Binder
101 nM,0.0795 s⁻¹,789000 M⁻¹ s⁻¹,"IgG with feline IgG1a Fc variant S428M, R392D (antibody, IgG1a constant domain with MALA mutations (M234A, L244A as printed); variable domains from WO 2023/97275) heavy: DVQLVESGGDLVKPGGSLRLTCVASGLSLTSDSMSWVRQAPGKGLQWVSTLWSNRGTYYTDSVKGRFTISKDNAENTLYLQMNNLKTEDTATYYCASIYYYEADYLHWYFDFWGQGALVTVSSASTTAPSVFPLAPSCGTTSGATVALACLVLGYFPEPVTVSWNSGALTSGVHTFPAVLQASGLYSLSSMVTVPSSRWLSDTFTCNVAHPPSNTKVDKTVRKTDHPPGPKPCDCPKCPPPEAAGGPSIFIFPPKPKDTLSISRTPEVTCLVVDLGPDDSDVQITWFVDNTQVYTAKTSPREEQFNSTYRVVSVLPILHQDWLKGKEFKCKVNSKSLPSPIERTISKAKGQPHEPQVYVLPPAQEELSRNKVSVTCLIKSFHPPDIAVEWEITGQPEPENNYDTTPPQLDSDGTYFVYSKLSVDRSHWQRGNTYTCSVMHEALHSHHTQKSLTQSPG light: EIQMTQSPTSLSASVGDRVTITCRASEGIANNLSWYQQTPGKAPKLLIYATSNLHSGVPSRFSGSGSGTDFTLTISSLQPEDFATYYCQQGFKWPLTFGGGTKLEITRSDAQPSVFLFQPSLDELHTGSASIVCILNDFYPKEVNVKWKVDGVVQNKGIQESTTEQNSKDSTYSLSSTLTMSSTEYQSHEKFSCEVTHKSLASTLVKSFNRSECQRE"
97.8 nM,0.0766 s⁻¹,784000 M⁻¹ s⁻¹,"IgG with feline IgG1a Fc variant S428M, R392E (antibody, IgG1a constant domain with MALA mutations (M234A, L244A as printed); variable domains from WO 2023/97275) heavy: DVQLVESGGDLVKPGGSLRLTCVASGLSLTSDSMSWVRQAPGKGLQWVSTLWSNRGTYYTDSVKGRFTISKDNAENTLYLQMNNLKTEDTATYYCASIYYYEADYLHWYFDFWGQGALVTVSSASTTAPSVFPLAPSCGTTSGATVALACLVLGYFPEPVTVSWNSGALTSGVHTFPAVLQASGLYSLSSMVTVPSSRWLSDTFTCNVAHPPSNTKVDKTVRKTDHPPGPKPCDCPKCPPPEAAGGPSIFIFPPKPKDTLSISRTPEVTCLVVDLGPDDSDVQITWFVDNTQVYTAKTSPREEQFNSTYRVVSVLPILHQDWLKGKEFKCKVNSKSLPSPIERTISKAKGQPHEPQVYVLPPAQEELSRNKVSVTCLIKSFHPPDIAVEWEITGQPEPENNYETTPPQLDSDGTYFVYSKLSVDRSHWQRGNTYTCSVMHEALHSHHTQKSLTQSPG light: EIQMTQSPTSLSASVGDRVTITCRASEGIANNLSWYQQTPGKAPKLLIYATSNLHSGVPSRFSGSGSGTDFTLTISSLQPEDFATYYCQQGFKWPLTFGGGTKLEITRSDAQPSVFLFQPSLDELHTGSASIVCILNDFYPKEVNVKWKVDGVVQNKGIQESTTEQNSKDSTYSLSSTLTMSSTEYQSHEKFSCEVTHKSLASTLVKSFNRSECQRE"
27.4 nM,0.0292 s⁻¹,1.07e+06 M⁻¹ s⁻¹,"IgG with feline IgG1a Fc variant S428M, T286E (antibody, IgG1a constant domain with MALA mutations (M234A, L244A as printed); variable domains from WO 2023/97275) heavy: DVQLVESGGDLVKPGGSLRLTCVASGLSLTSDSMSWVRQAPGKGLQWVSTLWSNRGTYYTDSVKGRFTISKDNAENTLYLQMNNLKTEDTATYYCASIYYYEADYLHWYFDFWGQGALVTVSSASTTAPSVFPLAPSCGTTSGATVALACLVLGYFPEPVTVSWNSGALTSGVHTFPAVLQASGLYSLSSMVTVPSSRWLSDTFTCNVAHPPSNTKVDKTVRKTDHPPGPKPCDCPKCPPPEAAGGPSIFIFPPKPKDTLSISRTPEVTCLVVDLGPDDSDVQITWFVDNTQVYEAKTSPREEQFNSTYRVVSVLPILHQDWLKGKEFKCKVNSKSLPSPIERTISKAKGQPHEPQVYVLPPAQEELSRNKVSVTCLIKSFHPPDIAVEWEITGQPEPENNYRTTPPQLDSDGTYFVYSKLSVDRSHWQRGNTYTCSVMHEALHSHHTQKSLTQSPG light: EIQMTQSPTSLSASVGDRVTITCRASEGIANNLSWYQQTPGKAPKLLIYATSNLHSGVPSRFSGSGSGTDFTLTISSLQPEDFATYYCQQGFKWPLTFGGGTKLEITRSDAQPSVFLFQPSLDELHTGSASIVCILNDFYPKEVNVKWKVDGVVQNKGIQESTTEQNSKDSTYSLSSTLTMSSTEYQSHEKFSCEVTHKSLASTLVKSFNRSECQRE"
